Measured values as given in patent publication US20240270821A1, “GIP/GLP1/GCG TRI-RECEPTOR AGONISTS AND USES THEREOF” (priority 2023, published 2024).
Numbering of substitutions follows the chain as printed. Starred links: 1 amine or outer side, 2 acyl side, 3 side chain; linkers in the order of their positions; H or OH if unused. Non-standard residues stand in square brackets, D forms with d. Groups on a side chain read outwards from the residue. No end group written: not given here. *: point of attachment. C18 diacid = O=C(O)CCCCCCCCCCCCCCCCC(=O)*; γGlu = O=C(O)[C@H](CCC(=O)[*:2])N[*:1]; αMe4Pal = C[C@](N)(Cc1ccncc1)C(=O)O; 4Pal = N[C@@H](Cc1ccncc1)C(=O)O; αMeL = CC(C)C[C@](C)(N)C(=O)O; Orn = NCCC[C@H](N)C(=O)O; Dab = NCC[C@H](N)C(=O)O; Aib = CC(C)(N)C(=O)O

B1: Example 1054 (peptide)
chain: Y[Aib]QGTFTSD[4Pal]S[Dab][αMeL]LD[Orn]K([γGlu-γGlu-C18 diacid])AQ[Aib]AFIE[αMe4Pal]LLAGGPSSGAPPPEGSEE-NH2
B2: Example 1055 (peptide)
chain: Y[Aib]QGTFTSD[4Pal]S[Dab][αMeL]LD[Orn]K([γGlu-γGlu-C18 diacid])AQ[αMe4Pal]AFIE[αMe4Pal]LLAGGPSSGAPPPEGSEE-NH2
B3: Example 1038 (peptide)
chain: YXQGTFTSDFSQXLDXKAQXAFIEYLLEAGPSSGAPPPSGSEEE
modifications: synthetic construct; SITE 2: note = 2-Aminoisobutyric Acid; SITE 13: note = alpha-methyl-leucine; SITE 16: note = L-ornithine; SITE 17: note = Lysine is chemically modified through conjugation of the epsilon-amino group of the Lysine side chain with (2-[2-(2-Amino-ethoxy)-ethoxy]-acetyl)-(gamma-Glu)
B4: Example 1040 (peptide)
chain: B3 chain with Y25X
modifications: Aib, αMeL, Orn, Me4Pal; acylated K; C-terminal amide; synthetic construct; SITE 2: note = 2-Aminoisobutyric Acid; SITE 13: note = alpha-methyl-leucine; SITE 16: note = L-ornithine; SITE 17: note = Lysine is chemically modified through conjugation of the epsilon-amino group of the Lysine side chain with (gamma-Glu)2-CO-(CH2)16-CO2H; SITE 20: note = 2-Am
B5: Example 1039 (peptide)
chain: B3 chain
modifications: not fully specified; synthetic construct; SITE 2: note = 2-Aminoisobutyric Acid; SITE 13: note = alpha-methyl-leucine; SITE 16: note = L-ornithine; SITE 17: note = Lysine is chemically modified through conjugation of the epsilon-amino group of the Lysine side chain with (gamma-Glu)2-CO-(CH2)16-CO2H; SITE 20: note = 2-Am
B6: Example 1049 (peptide)
chain: YXQGTFTSDFSXXLDXKAQXAFIEXLLEGGPSSGAPPPGGSEE
modifications: Aib, Orn, αMeL, αMeY; acylated Lys; C-terminal amide; synthetic construct; SITE 2: note = 2-Aminoisobutyric Acid; SITE 12: note = L-ornithine; SITE 13: note = alpha-methyl-leucine; SITE 16: note = L-ornithine; SITE 17: note = Lysine is chemically modified through conjugation of the epsilon-amino group of the Lysine side chain with (gamma-Glu)2-CO-(CH2)
B7: Example 1050 (peptide)
chain: B6 chain
modifications: non-natural residues; Lys acylated C18 diacid via γGlu2; C-term amide; synthetic construct; SITE 2: note = 2-Aminoisobutyric Acid; SITE 12: note = L-ornithine; SITE 13: note = alpha-methyl-leucine; SITE 16: note = L-ornithine; SITE 17: note = Lysine is chemically modified through conjugation of the epsilon-amino group of the Lysine side chain with (gamma-Glu)2-CO-(CH2)
B8: Example 1037 (peptide)
chain: YXQGTFTSDXSQXLDKKAQXAFIEYLLAGGPSSGAPPPSGSEE
modifications: AEEA-γGlu-C18 diacid on Lys; non-natural residues; amide; synthetic construct; SITE 2: note = 2-Aminoisobutyric Acid; SITE 10: note = 3-(4-Pyridyl)-L-alanine; SITE 13: note = alpha-methyl-leucine; SITE 17: note = Lysine is chemically modified through conjugation of the epsilon-amino group of the Lysine side chain with (2-[2-(2-Amino-ethoxy)-ethoxy]-acetyl)
B9: Example 1057 (peptide)
chain: B8 chain with K16X
modifications: non-natural residues, lipidated Lys, C-terminal amide; synthetic construct; SITE 2: note = 2-Aminoisobutyric Acid; SITE 10: note = 3-(4-Pyridyl)-L-alanine; SITE 13: note = alpha-methyl-leucine; SITE 16: note = L-ornithine; SITE 17: note = Lysine is chemically modified through conjugation of the epsilon-amino group of the Lysine side chain with (Glu)-(ga)
B10: Example 1062 (peptide)
chain: B8 chain with Q12X, K16X, L27I
modifications: C-terminal amide; lysine acylated with (Glu)2-γ-Glu-C18 diacid; synthetic construct; SITE 2: note = 2-Aminoisobutyric Acid; SITE 10: note = 3-(4-Pyridyl)-L-alanine; SITE 12: note = L-ornithine; SITE 13: note = alpha-methyl-leucine; SITE 16: note = L-ornithine; SITE 17: note = Lysine is chemically modified through conjugation of the epsilon-amino group of the Lys
B11: Example 1061 (peptide)
chain: B8 chain with Q12X, K16X, L27I
modifications: non-natural residues, C-terminal amide, acylated Lys with fatty diacid; synthetic construct; SITE 2: note = 2-Aminoisobutyric Acid; SITE 10: note = 3-(4-Pyridyl)-L-alanine; SITE 12: note = …; SITE 13: note = alpha-methyl-leucine; SITE 16: note = L-ornithine; SITE 17: note = Lysine is chemically modified through conjugation of the epsilon-amino group of the Lys
B12: Example 1068 (peptide)
chain: B8 chain with Q12X, K16X
modifications: C-terminal amide; lysine acylated with (γ-Glu)2-C18 diacid; synthetic construct; SITE 2: note = 2-Aminoisobutyric Acid; SITE 10: note = 3-(4-Pyridyl)-L-alanine; SITE 12: note = L-ornithine; SITE 13: note = alpha-methyl-leucine; SITE 16: note = L-ornithine; SITE 17: note = Lysine is chemically modified through conjugation of the epsilon-amino group of the Lys
B13: Example 1065 (peptide)
chain: B6 chain with F10X, G39S
modifications: Aib, 4Pal, Orn, αMeL, αMeY; lipidated Lys; C-terminal amide; synthetic construct; SITE 2: note = 2-Aminoisobutyric Acid; SITE 10: note = 3-(4-Pyridyl)-L-alanine; SITE 12: note = L-ornithine; SITE 13: note = alpha-methyl-leucine; SITE 16: note = L-ornithine; SITE 17: note = Lysine is chemically modified through conjugation of the epsilon-amino group of the Lys
B14: Example 1047 (peptide)
chain: B6 chain with X16K, X25Y
modifications: non-natural residues, C-terminal amide, acylated Lys with fatty diacid; synthetic construct; SITE 2: note = 2-Aminoisobutyric Acid; SITE 12: note = L-ornithine; SITE 13: note = alpha-methyl-leucine; SITE 17: note = Lysine is chemically modified through conjugation of the epsilon-amino group of the Lysine side chain with (gamma-Glu)2-CO-(CH2)16-CO2H; SITE 20: note = 2-Am
B15: Example 1048 (peptide)
chain: B6 chain with X25Y
modifications: non-natural residues (Aib, Orn, αMeL); lipidated Lys; C-terminal amide; synthetic construct; SITE 2: note = 2-Aminoisobutyric Acid; SITE 12: note = L-ornithine; SITE 13: note = alpha-methyl-leucine; SITE 16: note = L-ornithine; SITE 17: note = Lysine is chemically modified through conjugation of the epsilon-amino group of the Lysine side chain with (gamma-Glu)2-CO-(CH2)

Tests used:
Experiment in all cases: cell-based or functional assay
[1] = target: T1, human GIP receptor (human) (UniProt P48546)
T1 sequence (looked up): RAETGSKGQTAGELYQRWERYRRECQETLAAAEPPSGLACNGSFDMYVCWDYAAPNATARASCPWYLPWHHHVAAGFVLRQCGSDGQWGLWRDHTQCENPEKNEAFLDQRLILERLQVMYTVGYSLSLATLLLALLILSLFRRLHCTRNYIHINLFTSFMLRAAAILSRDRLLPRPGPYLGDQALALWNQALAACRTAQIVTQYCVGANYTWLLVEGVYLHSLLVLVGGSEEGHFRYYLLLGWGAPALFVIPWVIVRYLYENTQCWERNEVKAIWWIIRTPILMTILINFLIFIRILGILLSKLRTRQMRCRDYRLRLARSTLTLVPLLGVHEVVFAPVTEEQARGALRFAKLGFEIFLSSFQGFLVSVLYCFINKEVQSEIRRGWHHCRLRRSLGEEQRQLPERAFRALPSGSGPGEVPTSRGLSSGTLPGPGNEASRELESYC

[2] = target: human glucagon receptor (human) (UniProt P47871)
human glucagon receptor (human), sequence (P47871 26-477): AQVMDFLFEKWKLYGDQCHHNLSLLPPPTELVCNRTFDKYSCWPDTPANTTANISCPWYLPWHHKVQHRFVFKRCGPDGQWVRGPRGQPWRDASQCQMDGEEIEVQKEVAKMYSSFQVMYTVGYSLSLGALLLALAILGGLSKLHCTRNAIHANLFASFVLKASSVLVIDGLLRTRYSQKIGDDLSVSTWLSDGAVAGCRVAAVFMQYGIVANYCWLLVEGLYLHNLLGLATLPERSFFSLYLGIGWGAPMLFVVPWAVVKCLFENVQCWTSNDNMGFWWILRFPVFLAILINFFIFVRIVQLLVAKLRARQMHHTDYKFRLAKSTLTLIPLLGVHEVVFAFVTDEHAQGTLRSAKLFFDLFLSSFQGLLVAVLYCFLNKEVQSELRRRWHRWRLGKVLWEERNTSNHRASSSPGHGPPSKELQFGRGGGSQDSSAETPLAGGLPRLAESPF

hGLP-1R = hGLP-1R (Homo sapiens, UniProt P43220)
hGLP-1R, sequence (P43220 24-463): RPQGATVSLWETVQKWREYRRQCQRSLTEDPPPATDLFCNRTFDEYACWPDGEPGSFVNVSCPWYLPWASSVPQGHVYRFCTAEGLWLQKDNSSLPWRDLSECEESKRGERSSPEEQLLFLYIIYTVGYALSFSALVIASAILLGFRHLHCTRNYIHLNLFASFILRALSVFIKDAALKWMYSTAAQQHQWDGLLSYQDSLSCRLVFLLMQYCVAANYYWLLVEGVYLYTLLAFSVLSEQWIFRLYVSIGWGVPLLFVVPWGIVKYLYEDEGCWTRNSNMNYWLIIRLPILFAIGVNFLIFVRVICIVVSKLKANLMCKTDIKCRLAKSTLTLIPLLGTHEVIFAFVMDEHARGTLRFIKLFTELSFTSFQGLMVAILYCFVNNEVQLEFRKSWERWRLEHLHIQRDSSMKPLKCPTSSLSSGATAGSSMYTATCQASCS

Binder | Relative cAMP EC50 [1] | cAMP Rel EC50 (1% HSA) [1] | Relative cAMP EC50 [2] | cAMP Rel EC50 (1% HSA) [2] | Relative cAMP EC50 (hGLP-1R) | cAMP Rel EC50, nM (1% HSA) [1] | cAMP Rel EC50, nM (1% HSA) [2] | cAMP Rel EC50, nM (1% HSA) (hGLP-1R) | cAMP Rel EC50 (1% HSA) (hGLP-1R)
B1 | 0.797 nM | 79.4 nM | 8.06 nM | 1630 nM | 9.53 nM | – | – | – | –
B2 | 0.366 nM | 78.9 nM | 1.88 nM | 450 nM | 14.6 nM | – | – | – | –
B3 | 0.134 nM | – | 5.93 nM | – | 1.45 nM | 29.8 nM | 1300 nM | 349 nM | –
B4 | – | – | – | – | – | 20.8 nM | 2020 nM | 322 nM | –
B5 | 0.118 nM | – | 7.46 nM | – | 1.65 nM | 26.8 nM | 2020 nM | 413 nM | –
B6 | 0.24 nM | 56.2 nM | 6.33 nM | 1280 nM | 2.23 nM | – | – | – | 780 nM
B7 | 0.152 nM | 68.5 nM | 6.8 nM | 2040 nM | 7.65 nM | – | – | – | 1240 nM
B8 | – | – | – | – | – | 13.7 nM | 291 nM | 625 nM | –
B9 | 0.128 nM | 25.9 nM | 5.29 nM | 2780 nM | 5.16 nM | – | – | – | –
B10 | 0.726 nM | 67.5 nM | 8.77 nM | 2380 nM | 7.75 nM | – | – | – | –
B11 | 0.656 nM | 55.6 nM | 17.3 nM | 2910 nM | 4.56 nM | – | – | – | –
B12 | 0.211 nM | 20.2 nM | 4.8 nM | 295 nM | 11.6 nM | – | – | – | 1330 nM
B13 | 0.293 nM | 39.1 nM | 19.7 nM | 3080 nM | 11.6 nM | – | – | – | 2290 nM
B14 | 0.28 nM | – | 8.18 nM | – | 16.2 nM | 60.8 nM | 1510 nM | 1960 nM | –
B15 | 0.356 nM | – | 6.9 nM | – | 6.23 nM | 108 nM | 1930 nM | 1900 nM | –
